The values that follow come from PMC8017925, “Structural basis for differential recognition of phosphohistidine-containing peptides by 1-pHis and 3-pHis monoclonal antibodies” (Proceedings of the National Academy of Sciences of the …, 2021).

For experiment [1], the target named is ACLYana-3-pTza peptide (AGAG-3-pTza-AGAG). Kind of experiment: BLI binding kinetics of 3-pHis Fabs with cognate pTza peptide. Here is the method: (§1) Biolayer interferometry (BLI) studies were performed to determine the relative affinity of pHis Fabs to in situ phosphorylated His peptides versus the phosphomimetic substrates. The N-terminally biotinylated peptides were immobilized on streptavidin biosensors and the rate of association (ka) and dissociation (kd) were determined by varying the pHis Fab concentration. Equilibrium dissociation constants (KD) were determined by fitting the experimental data to a 1:1 Langmuir binding model. ACLYana-1-pTza and ACLYana-3-pTza peptides were used to determine affinity to 1-pHis and 3-pHis Fabs, respectively (Fig. 3 A–E and Table 1). […] The two isomers were separated from each other by passing the reaction through affinity columns containing 1-pHis mAbs using SC1-1 or SC50-3 IgGs or 3-pHis mAbs using SC39-4, SC44-8, and SC56-2 IgGs. The eluates thus contained either predominantly 1-pHis or 3-pHis peptides. These peptides were used to determine the affinity to their respective isomer class of pHis Fabs (Fig. 3 F–J, Table 1, and SI Appendix, Fig. S5). […] This experimental observation is well supported by the higher number of hydrogen bonds that support the SC44-8:3-pTza interaction compared to other pHis Fabs (SI Appendix, Table S5). […] There are at least three reasons for the lower affinity of the mAbs for pHis peptides compared to pTza peptides: The continuous hydrolysis of phosphate from the pHis peptides during the course of the experiment (SI Appendix, Fig. S6), a reduction in the number of hydrogen bond interactions due to one less nitrogen in the imidazole ring compared to triazolyl ring (Fig. 4 and SI Appendix, Fig. S8), and inherently different electronic properties of the imidazole and triazolyl rings in His and Tza, respectively ([20]).
(§2) Fig. 3. Binding kinetics of pHis Fabs with cognate pTza and pHis peptides. BLI studies of immobilized peptides (ACLYana-1/3-pTza and phosphorylated ACLYana) with varying concentrations of the pHis Fabs were carried out in triplicate on an Octet Red96e instrument (FortéBio). SC1-1 (A) and SC50-3 (B) pHis Fab interaction with their ACLYana-1-pTza peptides. SC39-4 (C), SC44-8 (D), and SC56-2 (E) pHis Fabs interactions with ACLYana-3-pTza peptides. SC1-1 (F), SC50-3 (G), SC39-4 (H), SC44-8 (I), and SC56-2 (J) pHis Fabs interactions with their affinity-purified ACLYana-pHis peptides are represented, Right. The experimental data are represented in the black dashed lines and the nonlinear least-squares fitting was represented in the red continuous lines. The χ^2 for the goodness of fit is under 1.0 for the all the plots.
(§3) The binding kinetics of pHis Fabs with the peptides (pTza and pHis) were evaluated with an Octet RED96e (FortéBio). Streptavidin-coated biosensors (FortéBio) were presoaked in buffer containing 50 mM Hepes pH 8.0, 150 mM NaCl, 0.05% Tween-20, and 0.2% BSA for 15 min. The biotinylated pTza peptides or pHis peptides (20 nM) with and without phosphoramidate treatment were coated onto these streptavidin biosensors and analyzed for their binding to varying concentrations of the pHis Fabs with an association time of 120 s and dissociation time of 200 s. The entire set of experiments was repeated three times. The data were analyzed using the Octet software (FortéBio) and the rates of association and dissociation were obtained by global fitting data to the 1:1 Langmuir interaction model.
(In general: BLI is a label-free optical method that tracks binding on a fibre tip over time.)

Experiment [2] has as its system ACLYana-3-pHis peptide (AGAG-3-pHis-AGAG). Kind of experiment: BLI binding kinetics of 3-pHis Fabs with affinity-purified pHis peptide. The protocol: as §1, §2
as §3, with “model. […]” for “model.”
Peptides used in the DSF and BLI experiments were synthesized by the Salk Peptide Synthesis Core. These peptides were N-terminally biotinylated and C-terminally amidated. They were synthesized using standard Fmoc chemistry on a Gyros Protein Technologies Tribute peptide synthesizer with UV monitoring. Following the deprotection, peptides were analyzed by mass spectrometry and analytical HPLC by the Proteomics Core at Salk. The peptides were HPLC purified to 99% purity by 21st Century Biochemicals, Inc. The Fmoc-pTza’s were synthesized at 10 g scale for incorporation into the peptides. […]

Where [3] appears, read: BLI, immobilized biotinylated ACLYana-3-pTza, 1:1 Langmuir global fit, triplicate.
[4] abbreviates: BLI, affinity-purified ACLYana-3-pHis peptide, 1:1 Langmuir global fit, triplicate.

B1: SC44-8: Fab of rabbit 3-pHis-specific monoclonal antibody with proclivity for GpHAGA motif (antibody, V domains shown)
VH: QSVKESGRGLVQPGGSLTLTCTASGFSIDSYGFSWVRQAPGKGLEHIGYLTAGGRAFYASWAKSRSTITRNTNENTVTLKMTSLTAADTATYFCAKLGSGNPVAIWGPGTLVTVSS
VL: QVLTQTPSFTSAAVGGTVTINCQSSQSVWRNKNLAWYQQKPGQPPKRLIYAIATLDSGVPSRFSGSGSGTQFTLTISDVQCDDAATYYCVGHYGSENDAYYAFGGGTEVVVK
As for B1, the Kd in experiment [1] (BLI Octet RED96e, N-terminally biotinylated peptide (20 nM) on streptavidin biosensors, varying Fab concentration, 50 mM Hepes pH 8.0, 150 mM NaCl, 0.05% Tween-20, 0.2% BSA, association 120 s, dissociation 200 s, global fit 1:1 Langmuir, triplicate) stood at 0.235 nM; in experiment [2] (BLI, ACLYana phosphorylated with phosphoramidate (8 h, 23 °C), 3-pHis isomer affinity-purified on 3-pHis IgG column, immobilized on streptavidin biosensors, Hepes pH 8.0, 1:1 Langmuir global fit, triplicate), 18.2 nM. Besides, the “dissociation rate, times slower than the other pHis Fabs” value in experiment [1] (BLI, 3-pTza peptide) is listed as 70 times. The ka in experiment [1] (setting [3]) worked out at 156000 ± 457 M⁻¹ s⁻¹; in experiment [2] (setting [4]) it was 93600 ± 319 M⁻¹ s⁻¹. In addition, the kd in experiment [1] (setting [3]) turned out to be 3.66e-05 ± 7.5e-07 s⁻¹; in experiment [2] (setting [4]), 0.0017 ± 3.32e-06 s⁻¹. Further, the “BLI signal (maximum) with ACLYana” value in experiment [2] (phosphorylated ACLYana, GpHAGAG motif) is given as 2.0 nm. Moreover, in experiment [2] (ratio of BLI KD, 3-pHis versus 3-pTza peptide), the “affinity for 3-pHis peptides, times (fold) weaker than for the 3-pTza peptide” value is 75 times.

For orientation: Kd means the concentration at which binding is half-saturated. The low end stands for a tighter complex, the high end for a looser complex.
